# Test results published in US20260207732A1.
# Tests used:
# [1] = molecular target: control (H1 Bri18 wild type HA ectodomain-foldon) (Influenza A virus A/Brisbane/02/2018 (H1N1)); assay: BLI (Octet) after 7D37C and trypsin; HA on Ni-NTA tips
# [2] = molecular target: control (H1 Bri18 wild type HA ectodomain-foldon) (Influenza A virus A/Brisbane/02/2018 (H1N1)); assay: BLI (Octet), HA-foldon-His on Ni-NTA tips, IgG in solution
Substance,Octet response (nm) [1] [nm],Octet response (nm) [2] [nm]
CR9114 monoclonal antibody (IgG),0.693,0.826
FI6v3 monoclonal antibody (IgG),0.697,0.856
